This test deals with peptide containing the APP12 polyproline motif and a N-terminal TAMRA label. As to the kind of experiment: fluorescence polarisation.

For the substance “naive fusion of bmTyr and Fyn-SH3 linked by a short glycine/serine linker (from UniProt P06241 84-141) (enzyme)”, the Kd is less than 2000 nM.

These data come from publication doi:10.1101/2025.10.27.684804.
